Experimental data: article PMC10204484

Biological target: anti-DENV antibody with the 3Cam2 variable region and the LALA Fc variant (human)

Work on “mouse C1q (from UniProt P98086 23-245; P14106 26-253; Q02105 30-246) (complex)” yielded a C3b ELISA (complement activation) on plate-immobilised antibody incubated with AG129 mouse serum; absorbance ratio versus the well without antibody immobilization of 1.5 fold.
